# Reference: patent US20260015426A1 (23ANDME, published 2026)
# Read-outs that look alike come from different tables or passages of the source.
# T1: human IL1RAP (hu-IL1RAP) on human cells (human, UniProt Q9NPH3 21-570)
# T1 sequence: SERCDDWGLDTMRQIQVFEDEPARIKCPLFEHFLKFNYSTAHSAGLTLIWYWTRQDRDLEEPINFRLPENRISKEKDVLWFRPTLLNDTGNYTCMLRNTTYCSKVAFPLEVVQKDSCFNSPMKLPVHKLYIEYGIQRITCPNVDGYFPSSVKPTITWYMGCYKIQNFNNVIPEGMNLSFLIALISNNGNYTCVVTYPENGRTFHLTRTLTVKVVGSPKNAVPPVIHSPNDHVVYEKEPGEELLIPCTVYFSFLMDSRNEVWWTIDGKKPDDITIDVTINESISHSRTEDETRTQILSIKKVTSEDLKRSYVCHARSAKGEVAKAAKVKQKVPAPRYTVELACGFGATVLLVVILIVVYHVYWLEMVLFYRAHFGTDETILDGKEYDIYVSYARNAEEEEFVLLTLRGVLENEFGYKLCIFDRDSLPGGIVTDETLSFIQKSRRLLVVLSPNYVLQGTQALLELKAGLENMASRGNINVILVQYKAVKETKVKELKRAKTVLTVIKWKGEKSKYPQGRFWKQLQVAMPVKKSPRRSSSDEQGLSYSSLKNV
# T2: hu-M-IL1RAP construct, positions S21-T367 (extracellular domain of the membrane form of human IL1RAP) (human, UniProt Q9NPH3 21-367)
# T2 construct: Biotinylated when captured on the Biacore chip
# T2 sequence: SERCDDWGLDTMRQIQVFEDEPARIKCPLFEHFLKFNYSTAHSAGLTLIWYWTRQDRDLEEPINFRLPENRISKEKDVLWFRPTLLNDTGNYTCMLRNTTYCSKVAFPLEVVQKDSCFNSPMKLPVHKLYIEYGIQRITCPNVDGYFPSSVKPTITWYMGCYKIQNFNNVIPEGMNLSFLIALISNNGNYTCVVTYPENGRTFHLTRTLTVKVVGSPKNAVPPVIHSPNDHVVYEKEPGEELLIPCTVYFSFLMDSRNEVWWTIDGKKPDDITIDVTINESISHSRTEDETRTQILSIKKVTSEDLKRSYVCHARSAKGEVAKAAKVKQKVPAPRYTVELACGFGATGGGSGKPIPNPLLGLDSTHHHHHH
# T3: hu-M-IL1RAP-D1D2 construct, positions S21-P237 (human)
# T3 chain: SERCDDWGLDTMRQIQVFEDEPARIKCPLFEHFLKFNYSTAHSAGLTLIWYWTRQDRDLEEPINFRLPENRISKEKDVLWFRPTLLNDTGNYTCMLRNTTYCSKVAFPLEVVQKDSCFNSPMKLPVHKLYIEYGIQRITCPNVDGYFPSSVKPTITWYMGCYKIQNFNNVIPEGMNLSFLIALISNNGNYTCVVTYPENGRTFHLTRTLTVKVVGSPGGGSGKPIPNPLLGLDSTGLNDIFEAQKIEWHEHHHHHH
# T4: hu-S-IL1RAP construct, positions S21-Q356 (soluble human IL1RAP) (human, UniProt Q9NPH3 21-350)
# T4 sequence: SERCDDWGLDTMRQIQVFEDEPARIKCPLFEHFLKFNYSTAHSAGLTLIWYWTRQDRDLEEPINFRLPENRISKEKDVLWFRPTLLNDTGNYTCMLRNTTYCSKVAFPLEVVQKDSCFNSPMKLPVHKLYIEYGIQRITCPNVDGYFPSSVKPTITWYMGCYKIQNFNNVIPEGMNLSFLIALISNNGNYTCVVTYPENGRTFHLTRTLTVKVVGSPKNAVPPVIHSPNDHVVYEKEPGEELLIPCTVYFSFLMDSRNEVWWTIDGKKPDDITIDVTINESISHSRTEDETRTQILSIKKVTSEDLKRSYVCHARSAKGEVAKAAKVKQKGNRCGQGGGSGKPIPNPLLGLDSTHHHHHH
# T5: cyno-M-IL1RAP construct, positions S21-T367 (cynomolgus monkey, UniProt P59822 21-367 (rhesus entry))
# T5 construct: Biotinylated when captured on the Biacore chip; also called cy-M-IL1RAP
# T5 sequence: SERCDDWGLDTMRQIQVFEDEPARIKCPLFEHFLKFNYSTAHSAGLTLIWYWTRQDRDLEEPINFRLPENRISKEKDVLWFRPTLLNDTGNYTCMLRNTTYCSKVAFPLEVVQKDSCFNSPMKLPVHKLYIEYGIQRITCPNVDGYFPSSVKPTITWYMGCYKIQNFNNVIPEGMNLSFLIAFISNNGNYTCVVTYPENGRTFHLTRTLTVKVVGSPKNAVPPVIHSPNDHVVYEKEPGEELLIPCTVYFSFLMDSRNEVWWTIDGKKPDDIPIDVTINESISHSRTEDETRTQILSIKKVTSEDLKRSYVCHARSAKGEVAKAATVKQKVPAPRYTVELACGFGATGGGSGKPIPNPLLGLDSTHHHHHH
# T6: mu-M-IL1RAP construct, positions S21-T367 (mouse, UniProt Q61730 21-367)
# T6 construct: also called mo-M-IL1RAP; mouse-M-IL1RAP
# T6 sequence: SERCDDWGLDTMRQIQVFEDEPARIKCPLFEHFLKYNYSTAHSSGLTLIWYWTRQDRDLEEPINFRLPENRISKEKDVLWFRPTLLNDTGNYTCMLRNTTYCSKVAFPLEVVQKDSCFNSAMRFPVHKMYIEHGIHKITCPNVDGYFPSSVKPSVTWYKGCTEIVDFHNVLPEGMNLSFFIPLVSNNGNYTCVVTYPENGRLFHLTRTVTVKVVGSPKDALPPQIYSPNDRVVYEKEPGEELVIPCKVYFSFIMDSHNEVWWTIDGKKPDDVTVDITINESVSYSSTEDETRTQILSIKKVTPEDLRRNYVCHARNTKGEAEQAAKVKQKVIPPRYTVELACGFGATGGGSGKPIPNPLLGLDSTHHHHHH
# Assays:
# [1] = target: T1, human IL1RAP (hu-IL1RAP) on human cells; experiment: cell-based or functional assay
# [2] = target: T2, hu-M-IL1RAP construct, positions …; experiment: ELISA, hybridoma supernatant
# [3] = target: T1, human IL1RAP (hu-IL1RAP) on human cells; experiment: cell-based or functional assay; remark: listed apart in the source
# [4] = target: T3, hu-M-IL1RAP-D1D2 construct, positions …; experiment: ELISA, mAb at 10 nM
# [5] = target: T2, hu-M-IL1RAP construct, positions …; experiment: ELISA, mAb at 10 nM
# [6] = target: T4, hu-S-IL1RAP construct, positions …; experiment: ELISA, purified mAb
# [7] = target: T2, hu-M-IL1RAP construct, positions …; experiment: ELISA, purified mAb
# [8] = target: T5, cyno-M-IL1RAP construct, positions …; experiment: ELISA, purified mAb
# [9] = target: T6, mu-M-IL1RAP construct, positions …; experiment: ELISA, purified mAb
# [10] = target: T2, hu-M-IL1RAP construct, positions …; experiment: SPR, IgG analyte (apparent), 37 C, pH 7.4
# [11] = target: T5, cyno-M-IL1RAP construct, positions …; experiment: SPR, IgG analyte (apparent), 37 C, pH 7.4
# [12] = target: T1, human IL1RAP (hu-IL1RAP) on human cells; experiment: cell-based or functional assay; remark: listed apart in the source
# [13] = target: T2, hu-M-IL1RAP construct, positions …; experiment: SPR, IgG analyte (apparent), 37 C, pH 6
# [14] = target: T5, cyno-M-IL1RAP construct, positions …; experiment: SPR, IgG analyte (apparent), 37 C, pH 6
# [15] = target: T2, hu-M-IL1RAP construct, positions …; experiment: SPR, 37 C
# [16] = target: T5, cyno-M-IL1RAP construct, positions …; experiment: SPR, 37 C
# [17] = target: T7, biotinylated cyno FcRn (Acro biosystems, catalogue number FCM-C5284) (cynomolgus monkey, UniProt Q8SPV9 24-297; Q8SPW0 21-119, limits assumed, biotinylated); experiment: SPR steady state, FcRn captured, 25 C, pH 6.0; pH 6.0
# T7 construct: Bought reagent
# [18] = target: T8, biotinylated human FcRn (Acro biosystems, catalogue number FCN-H52W7) (human, UniProt P55899 24-297; P61769 21-119, biotinylated); experiment: as above
# T8 construct: Bought reagent; also called hu-FcRn
# T8 sequence (P55899 24-297 limits assumed, chain 1 of 2): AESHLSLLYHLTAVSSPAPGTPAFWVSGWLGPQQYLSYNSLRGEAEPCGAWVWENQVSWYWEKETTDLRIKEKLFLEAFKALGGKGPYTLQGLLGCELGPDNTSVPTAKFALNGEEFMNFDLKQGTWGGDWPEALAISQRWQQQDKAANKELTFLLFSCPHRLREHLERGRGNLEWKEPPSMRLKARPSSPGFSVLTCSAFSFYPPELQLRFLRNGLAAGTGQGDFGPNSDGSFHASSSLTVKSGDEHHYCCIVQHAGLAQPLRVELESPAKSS
# T8 sequence (P61769 21-119 limits assumed, chain 2 of 2): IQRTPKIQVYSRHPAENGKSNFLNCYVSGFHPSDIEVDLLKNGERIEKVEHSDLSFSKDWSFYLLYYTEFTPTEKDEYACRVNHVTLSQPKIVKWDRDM
# [19] = target: T2, hu-M-IL1RAP construct, positions …; experiment: SPR, IgG analyte (apparent), pH 7.4, 37 C
# [20] = target: T5, cyno-M-IL1RAP construct, positions …; experiment: SPR, IgG analyte (apparent), pH 7.4, 37 C
# [21] = target: T1, human IL1RAP (hu-IL1RAP) on human cells; experiment: cell-based or functional assay; remark: listed apart in the source
binder,measurement,setting,value
"8H1 (purified mAb from hybridoma 8H1) (antibody, V domains shown, Mouse hybridoma mAb) VH: QVQLQQSGPELVKSGASVRISCKASGYAFSGSWMNWVKQRPGKGLEWIGRIYPGDGNTNYNGKFKDKATLTADKSSSTAFMQLSSLTSEDSAVYFCARDYYLFYFDYWGQGTTLTVSS VL: NIVMTQTPKFLPVAAEDRVIITCKASQDVSNEVAWYQQKPGQSPKLLMYYASNRYTGVPDRFTGSGSGTDFTFTISSVQVEDLAVYFCQQHYSSPLTFGAGTKLELK","HEK-Blue, IL-1β, % inhibition at 100 nM",[1],64%
same,"HEK-Blue, IL-33, % inhibition at 100 nM",[1],27%
same,A450,[2],0.987 A450
same,"HEK-Blue SEAP, IL-1β, % inhibition (supernatant)",[3],45%
same,"HEK-Blue SEAP, IL-33, % inhibition (supernatant)",[3],26%
same,A450,[4],0.602 A450
same,A450,[5],1.09 A450
same,EC50,[6],0.186 nM
same,EC50,[7],0.262 nM
same,EC50,[8],0.257 nM
same,binding result,[9],no binding (tested: 20 nM (highest tested))
"9D5 (purified mAb from hybridoma 9D5) (antibody, V domains shown, Mouse hybridoma mAb) VH: QVQLQQSGAELARPGASVKFSCKASGYTFTSYWMQWVKQRPGQGLEWIGTIYPGDGNTRYTQKFKGKATLTADKSSSTAYMQLSGLASEDSAVYYCARGYFGNLVFDVWGAGTTVTVSS VL: DIKMTQSPSSMYASLGERVTITCKASQDINTYLSWFLQKPGKSPKTLIYRADRLVDGVPSRFSGGGSGQDYSLTISSLEYEDLGIYYCLQYDEFPYTFGSGTKLEIK","HEK-Blue, IL-1β, % inhibition at 100 nM",[1],86%
same,"HEK-Blue, IL-33, % inhibition at 100 nM",[1],46%
same,A450,[2],1.05 A450
same,"HEK-Blue SEAP, IL-1β, % inhibition (supernatant)",[3],40%
same,"HEK-Blue SEAP, IL-33, % inhibition (supernatant)",[3],18%
same,A450,[4],0.957 A450
same,A450,[5],1.14 A450
same,EC50,[6],0.036 nM
same,EC50,[7],0.039 nM
same,EC50,[8],0.043 nM
same,binding result,[9],no binding (tested: 20 nM (highest tested))
"h11C5 variant K17/H2 IgG (YKD) (antibody, Human IgG1 N297G; also called 11C5-YKD) heavy: not shown light: DIQMTQSPSSLSASVGDRVTITCRASENIYSNLAWYQQKPGKSPKLLVYGYKNLADGVPSRFSGSGSGTDYTLTISSLQPEDFATYYCQHFKTTPRTFGGGTKVEIKRTVAAPSVFIFPPSDEQLKSGTASVVCLLNNFYPREAKVQWKVDNALQSGNSQESVTEQDSKDSTYSLSSTLTLSKADYEKHKVYACEVTHQGLSSPVTKSFNRGEC",Kd,[10],0.0185 nM
same,koff,[10],3.51e-05 s⁻¹
same,kon,[10],1.9e+06 M⁻¹ s⁻¹
same,Kd,[11],0.0339 nM
same,koff,[11],6.8e-05 s⁻¹
same,kon,[11],2e+06 M⁻¹ s⁻¹
same,"HEK-Blue, IL-1β, IC50",[12],0.51 nM
same,"HEK-Blue, IL-33, % inhibition at 100 nM",[12],95%
same,"HEK-Blue, IL-33, IC50",[12],3.15 nM
same,"HEK-Blue, IL-36β, IC50",[12],0.9 nM
same,"HEKn, IL-36β stimulated IL-8, IC50",[12],1.39 nM
same,"NK cells, IL-33+IL-12 stimulated IFN-γ, IC50",[12],2.93 nM
same,"PHLF, IL-1α stimulated IL-8, IC50",[12],9.1 nM
same,"PHLF, IL-36β stimulated IL-8, IC50",[12],0.39 nM
same,"monocytes, IL-1β stimulated IL-6, IC50",[12],0.063 nM
same,Kd,[13],0.188 nM
same,koff,[13],0.00056 s⁻¹
same,kon,[13],2.98e+06 M⁻¹ s⁻¹
same,Kd,[14],0.164 nM
same,koff,[14],0.000324 s⁻¹
same,kon,[14],1.98e+06 M⁻¹ s⁻¹
same,KD (6)/KD (7.4),[15],10 ratio
same,KD (7.4) ratio to YIS,[15],0.86 ratio
same,koff (6) ratio to YIS,[15],3.8 ratio
same,KD (6)/KD (7.4),[16],4.8 ratio
same,KD (7.4) ratio to YIS,[16],2.4 ratio
same,koff (6) ratio to YIS,[16],4.7 ratio
same,Kd,[17],45.6 nM
same,Kd,[18],558 nM
same,Kd,[19],0.0304 nM
same,koff,[19],6.15e-05 s⁻¹
same,kon,[19],2.03e+06 M⁻¹ s⁻¹
same,Kd,[20],0.0223 nM
same,koff,[20],5.39e-05 s⁻¹
same,kon,[20],2.41e+06 M⁻¹ s⁻¹
same,"HEK-Blue, IL-1β, % inhibition at 100 nM (IgG)",[21],100%
same,"HEK-Blue, IL-1β, IC50 (IgG)",[21],0.513 nM
same,"HEK-Blue, IL-33, % inhibition at 100 nM (IgG)",[21],100%
same,"HEK-Blue, IL-33, IC50 (IgG)",[21],2.08 nM
same,"HEK-Blue, IL-36α, % inhibition at 100 nM (IgG)",[21],100%
same,"HEK-Blue, IL-36α, IC50 (IgG)",[21],0.622 nM
